Experimental findings from the supplement of paper PMC10126150 are described below.

± gives the standard deviation of the averaged measurements.
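Also: ATP exposure 15 min at 22 °C before imaging.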

For this data set, the system named is ATP. Kind of data set: switch fluorescence ratio, 500 uM ATP over buffer (Cy3 cluster intensity, sum of 5 cycles each) (fold (ratio)); higher = stronger signal-on switching upon ATP binding; sequences stand for … in TCGTCGGCAGCGTCAGATGTGTATAAGAGACAGTTTTTTTTTTTTTTTTTTTTTTTTT…TC. To be noted: aptamer strand: ATP DNA aptamer (quencher-CACCTGGGGGAGTATTGCGGAGGAAGG + anchor), 100 nM annealed; ATP concentration: 500 uM. The essentials: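 The fluorescence ratio divides summed target-cycle Cy3 intensity by summed buffer-cycle Cy3 intensity for each cluster and is averaged per switch-domain sequence. Cy3-labelled switching-strand clusters on a modified Illumina MiSeq flow-cell were annealed to 100 nM quencher-labelled ATP aptamer, then imaged in selection buffer and again after 15 min with 500 uM ATP at 22 °C. Five such cycles were run, with NaOH stripping and re-annealing between them, and clusters outside 100-1000 RFU were excluded.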
Regarding GGGTCGGACG, the switch fluorescence ratio stood at 1.028 ± 0.0088.

With TGAAATTACT, the switch fluorescence ratio was 1.05 ± 0.033.

Consider AGTTGTGGTA, for which the switch fluorescence ratio turned out to be 1.003 ± 0.01.

Turning to TTTCGTGAAA, the switch fluorescence ratio amounted to 0.9975 ± 0.0019.

Take TTGCCTTTCG: the switch fluorescence ratio worked out at 0.97 ± 0.041.

As for ACGTATGTTG, the switch fluorescence ratio came to 1.022 ± 0.0017.

For TTGGGCATCT, the switch fluorescence ratio was found to be 1.003 ± 0.0031.

AGCCTTTATC: the switch fluorescence ratio is 1.04 ± 0.011.

As for AGTTGTGTTT, the switch fluorescence ratio was determined as 0.966 ± 0.043.

Regarding AGTGATATTT, the switch fluorescence ratio worked out at 1.01 ± 0.042.

Take CGGGGCTGAA: the switch fluorescence ratio was determined as 0.991 ± 0.0089.

Turning to GGAATGTAGG, the switch fluorescence ratio was found to be 0.99 ± 0.027.

On to GGCTCGTAGG, for which the switch fluorescence ratio was 1 ± 0.024.

On to TAGGGAAGAG, for which the switch fluorescence ratio is 0.996 ± 0.041.

Turning to TTTTTTGACT, the switch fluorescence ratio worked out at 0.995 ± 0.04.

On to TGTTCGGTCG, for which the switch fluorescence ratio was 1.005 ± 0.0014.

As for CGGGGAATTT, the switch fluorescence ratio was found to be 1.01 ± 0.022.

CATAGAGTTG: the switch fluorescence ratio worked out at 1.03 ± 0.084.

For the sequence AAGTGTCTTG, the switch fluorescence ratio came out at 0.999 ± 0.05.

Take TACAGCAGTA: the switch fluorescence ratio is 1.1 ± 0.14.

In the case of CAGTTTAAGT, the switch fluorescence ratio came to 0.993 ± 0.01.

As for GTGGGTGATA, the switch fluorescence ratio turned out to be 0.994 ± 0.036.

With GACGTGGAAG, the switch fluorescence ratio is 1.01 ± 0.024.

As to CGAATTTTTG, the switch fluorescence ratio came out at 0.982 ± 0.018.

As for GCGGAATGGA, the switch fluorescence ratio turned out to be 1.02 ± 0.013.

For the sequence CGGGTTGGGA, the switch fluorescence ratio was determined as 1.007 ± 0.0042.

In the case of ATGTAAAGGT, the switch fluorescence ratio was 1.04 ± 0.058.

Turning to CAGTGGGAAA, the switch fluorescence ratio amounted to 1.01 ± 0.029.

For ATCGAGGCAC, the switch fluorescence ratio was 1.056 ± 0.0061.

Regarding TTTGGGGAGC, the switch fluorescence ratio worked out at 0.986 ± 0.045.

Turning to TCCCCTGTGT, the switch fluorescence ratio was determined as 1.86 ± 0.54.

Take TCCTATGGGG: the switch fluorescence ratio came to 0.9886 ± 0.0033.

In the case of TGATTAAGAT, the switch fluorescence ratio was determined as 0.994 ± 0.026.

For TTGAAGCAAA, the switch fluorescence ratio turned out to be 1.44 ± 0.37.

As to TTTTTGAGAT, the switch fluorescence ratio stood at 0.994 ± 0.03.

For the sequence TTGGTTTTTG, the switch fluorescence ratio stood at 1 ± 0.037.

For TTAATCTCGG, the switch fluorescence ratio is 0.9954 ± 0.0016.

Regarding GGTTTGGACG, the switch fluorescence ratio worked out at 0.981 ± 0.037.

For TTTATGTGTG, the switch fluorescence ratio was 0.999 ± 0.026.

In the case of AGAGTTATTG, the switch fluorescence ratio was 0.998 ± 0.018.

Take GATAGGTGCC: the switch fluorescence ratio was determined as 1.002 ± 0.0027.

For GCGTTAAGTA, the switch fluorescence ratio was 1.005 ± 0.0085.

Take TTTGGGAAAA: the switch fluorescence ratio is 1.05 ± 0.038.

Take TGGACGTGGG: the switch fluorescence ratio is 0.98 ± 0.052.

Turning to CAGCGAACGG, the switch fluorescence ratio was 1.02 ± 0.026.

For the sequence TGTATATCTA, the switch fluorescence ratio was 1.02 ± 0.025.

With GGGGTTGCGA, the switch fluorescence ratio worked out at 0.996 ± 0.018.

In the case of GCTATTTGTA, the switch fluorescence ratio worked out at 1.01 ± 0.023.

For GGTATGGACA, the switch fluorescence ratio turned out to be 0.997 ± 0.013.

Take AAGTCTGTTT: the switch fluorescence ratio stood at 1.03 ± 0.028.

With CGGGAATTAA, the switch fluorescence ratio turned out to be 0.997 ± 0.03.

With CATTTGACGG, the switch fluorescence ratio came to 0.995 ± 0.024.

CGGAAGTTAT: the switch fluorescence ratio is 1.01 ± 0.04.

In the case of AACTCCAGGG, the switch fluorescence ratio stood at 1.35 ± 0.2.

In the case of GCTTAAATCT, the switch fluorescence ratio amounted to 1.01 ± 0.029.

Turning to AGGGGTTGTT, the switch fluorescence ratio was 1.07 ± 0.091.

AGCAAAAGAA: the switch fluorescence ratio worked out at 1.12 ± 0.15.

As to TTATGGTCGG, the switch fluorescence ratio turned out to be 0.984 ± 0.016.

TGGTTCTCGA: the switch fluorescence ratio amounted to 0.987 ± 0.012.

On to ACCTATTAGA, for which the switch fluorescence ratio is 1.01 ± 0.022.

Consider GAGGGAAGTA, for which the switch fluorescence ratio amounted to 1.06 ± 0.17.

In the case of AGAGGGGTTA, the switch fluorescence ratio amounted to 1.01 ± 0.056.

Turning to GCCCATAGGA, the switch fluorescence ratio is 0.978 ± 0.094.

CACCGGGGTG: the switch fluorescence ratio was 0.995 ± 0.13.

In the case of TGGTATTATT, the switch fluorescence ratio amounted to 0.998 ± 0.024.

As for AAGGTTATCT, the switch fluorescence ratio was 1.005 ± 0.0068.

For TTTTAGTATT, the switch fluorescence ratio was found to be 0.9973 ± 0.0091.

Take GCGAAGGTCT: the switch fluorescence ratio came to 1 ± 0.014.

For the sequence ATGTGGCCTA, the switch fluorescence ratio worked out at 0.986 ± 0.034.

GGAGTCGTTA: the switch fluorescence ratio stood at 1 ± 0.041.

On to GCTTGTAGCT, for which the switch fluorescence ratio was found to be 1.02 ± 0.0095.

For the sequence TGATCGGGCA, the switch fluorescence ratio came to 0.956 ± 0.031.

As to CAAGTCTGGG, the switch fluorescence ratio is 0.9879 ± 0.0059.

Consider GGGGGGGCAT, for which the switch fluorescence ratio turned out to be 1.02 ± 0.031.

For the sequence CGGGAATCCT, the switch fluorescence ratio was determined as 1.11 ± 0.04.

For GGCGTAATTG, the switch fluorescence ratio amounted to 1 ± 0.032.

For the sequence TTGGATGGAA, the switch fluorescence ratio is 0.984 ± 0.023.

TTGTATAAA: the switch fluorescence ratio was 1 ± 0.022.
